B1: CCDC70 (parent)
chain: FSFKVSRWMGLACFRSLAASSPSI
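Also: lentivirally expressed fusions sorted by FACS into six bins by GFP to DsRed ratio, PSI derived from sequencing read proportions per bin multiplied by bin number.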

Variants of B1 are the subject of this data set. Put plainly: protein stability index of a GFP-peptide fusion (GPS, HEK-293T) (PSI 1-6); higher = more stable. As to conditions: c terminus: a fixed tail appended.
Consider FSFKVSRWMGLACFRSLYASSPSI [A18Y], for which the protein stability index is 3.5.
On to FSFKVSRWMGLACFRSLFASSPSI [A18F], for which the protein stability index is 2.74.
To FSFKVSRWMGLACFRSLKASSPSI [A18K] belongs 4.48; to FSFKVSRWMGLACFRSLMASSPSI [A18M], 2.78; to FSFKVSRWMGLACFRSLEASSPSI [A18E], 2.71.
The result for FSFKVSRWMGLACFRSLHASSPSI [A18H] reads 2.37.
In the case of FSFKVSRWMGLACFRSLDASSPSI [A18D], the protein stability index was 2.71.
In the case of FSFKVSRWMGLACFRSLLASSPSI [A18L], the protein stability index amounted to 2.9.
The result for FSFKVSRWMGLACFRSLWASSPSI [A18W] reads 1.96; that for FSFKVSRWMGLACFRSLVASSPSI [A18V], 2.58.
On to FSFKVSRWMGLACFRSLSASSPSI [A18S], for which the protein stability index was 2.69.
With FSFKVSRWMGLACFRSLTASSPSI [A18T], the protein stability index amounted to 2.82.
FSFKVSRWMGLACFRSLRASSPSI [A18R]: the protein stability index came to 2.21.
As for FSFKVSRWMGLACFRSLAYSSPSI [A19Y], the protein stability index amounted to 3.36.
Take FSFKVSRWMGLACFRSLAESSPSI [A19E]: the protein stability index is 3.77.
Take FSFKVSRWMGLACFRSLAQSSPSI [A19Q]: the protein stability index amounted to 2.32.
On to FSFKVSRWMGLACFRSLAGSSPSI [A19G], for which the protein stability index came to 2.19.
The result for FSFKVSRWMGLACFRSLALSSPSI [A19L] reads 3.58.
Consider FSFKVSRWMGLACFRSLAVSSPSI [A19V], for which the protein stability index came to 3.78.
The result for FSFKVSRWMGLACFRSLAPSSPSI [A19P] reads 2.09; that for FSFKVSRWMGLACFRSLASSSPSI [A19S], 3.28.
The result for FSFKVSRWMGLACFRSLAHSSPSI [A19H] reads 2.03.
To FSFKVSRWMGLACFRSLANSSPSI [A19N] belongs 3.2; to FSFKVSRWMGLACFRSLATSSPSI [A19T], 3.93; to FSFKVSRWMGLACFRSLARSSPSI [A19R], 3.39.
For the variant FSFKVSRWMGLACFRSLACSSPSI [A19C], the protein stability index stood at 1.8.
With FSFKVSRWMGLACFRSLADSSPSI [A19D], the protein stability index was 2.88.
FSFKVSRWMGLACFRSLAMSSPSI [A19M]: the protein stability index came to 3.27.
FSFKVSRWMGLACFRSLAWSSPSI [A19W]: the protein stability index was determined as 3.71.
The result for FSFKVSRWMGLACFRSLAFSSPSI [A19F] reads 1.36.
In the case of FSFKVSRWMGLACFRSTAASSPSI [L17T], the protein stability index is 2.3.
FSFKVSRWMGLACFRSMAASSPSI [L17M]: the protein stability index is 2.77.
Consider FSFKVSRWMGLACFRSPAASSPSI [L17P], for which the protein stability index was determined as 3.88.
For the variant FSFKVSRWMGLACFRSKAASSPSI [L17K], the protein stability index was determined as 2.45.
In the case of FSFKVSRWMGLACFRSAAASSPSI [L17A], the protein stability index stood at 1.7.
In the case of FSFKVSRWMGLACFRSIAASSPSI [L17I], the protein stability index is 1.86.
In the case of FSFKVSRWMGLACFRSNAASSPSI [L17N], the protein stability index is 2.73.
Take FSFKVSRWMGLACFRSSAASSPSI [L17S]: the protein stability index was found to be 1.87.
With FSFKVSRWMGLACFRSYAASSPSI [L17Y], the protein stability index was determined as 2.69.
For FSFKVSRWMGLACFRSVAASSPSI [L17V], the protein stability index stood at 2.84.
FSFKVSRWMGLACFRSQAASSPSI [L17Q]: the protein stability index was found to be 1.83.
Consider FSFKVSRWMGLACFRSHAASSPSI [L17H], for which the protein stability index was 2.29.
FSFKVSRWMGLACFRSRAASSPSI [L17R]: the protein stability index is 2.19.
On to FSFKVSRWMGLACFRSGAASSPSI [L17G], for which the protein stability index was 3.62.
On to FSFKVSRWMNLACFRSLAASSPSI [G10N], for which the protein stability index is 3.79.
With FSFKVSRWMCLACFRSLAASSPSI [G10C], the protein stability index was found to be 1.55.
Regarding FSFKVSRWMSLACFRSLAASSPSI [G10S], the protein stability index amounted to 2.98.
On to FSFKVSRWMWLACFRSLAASSPSI [G10W], for which the protein stability index turned out to be 3.9.
Turning to FSFKVSRWMVLACFRSLAASSPSI [G10V], the protein stability index was 2.36.
Consider FSFKVSRWMDLACFRSLAASSPSI [G10D], for which the protein stability index was found to be 3.79.
As to FSFKVSRWMMLACFRSLAASSPSI [G10M], the protein stability index is 4.54.
Take FSFKVSRWMELACFRSLAASSPSI [G10E]: the protein stability index stood at 3.35.
On to FSFKVSRWMRLACFRSLAASSPSI [G10R], for which the protein stability index was 2.37.
To FSFKVSRWMYLACFRSLAASSPSI [G10Y] belongs 4.12; to FSFKVSRWMALACFRSLAASSPSI [G10A], 3.75; to FSFKVSRWMPLACFRSLAASSPSI [G10P], 4.98.
Consider FSFKVSRWMFLACFRSLAASSPSI [G10F], for which the protein stability index was found to be 1.86.
As to FSFKVSRWMKLACFRSLAASSPSI [G10K], the protein stability index stood at 3.17.
To FSFKVSRWMGLACFRKLAASSPSI [S16K] belongs 2.18.
With FSFKVSRWMGLACFRLLAASSPSI [S16L], the protein stability index came out at 2.13.
Take FSFKVSRWMGLACFRGLAASSPSI [S16G]: the protein stability index is 3.37.
With FSFKVSRWMGLACFRWLAASSPSI [S16W], the protein stability index is 2.79.
On to FSFKVSRWMGLACFRFLAASSPSI [S16F], for which the protein stability index stood at 2.55.
With FSFKVSRWMGLACFRILAASSPSI [S16I], the protein stability index was determined as 1.98.
Regarding FSFKVSRWMGLACFRNLAASSPSI [S16N], the protein stability index amounted to 3.94.
The result for FSFKVSRWMGLACFRCLAASSPSI [S16C] reads 2.56.
With FSFKVSRWMGLACFRALAASSPSI [S16A], the protein stability index was 3.04.
To FSFKVSRWMGLACFRELAASSPSI [S16E] belongs 4.34; to FSFKVSRWMGLACFRQLAASSPSI [S16Q], 2.42; to FSFKVSRWMGLACFRPLAASSPSI [S16P], 3.05.
As to FSFKVSRWMGLACFRYLAASSPSI [S16Y], the protein stability index was 3.27.
On to FSFKVSRWMGLACFRDLAASSPSI [S16D], for which the protein stability index stood at 2.86.
To FSFKVSRWMGLACFRRLAASSPSI [S16R] belongs 3.88; to FSFKVSRWMGLACFRHLAASSPSI [S16H], 3.13.
To FSFKVSRWMGLARFRSLAASSPSI [C13R] belongs 3.4; to FSFKVSRWMGLAGFRSLAASSPSI [C13G], 2.27; to FSFKVSRWMGLAKFRSLAASSPSI [C13K], 1.46.
In the case of FSFKVSRWMGLAFFRSLAASSPSI [C13F], the protein stability index was 3.96.
In the case of FSFKVSRWMGLAHFRSLAASSPSI [C13H], the protein stability index was 2.36.
Consider FSFKVSRWMGLASFRSLAASSPSI [C13S], for which the protein stability index turned out to be 2.66.
With FSFKVSRWMGLATFRSLAASSPSI [C13T], the protein stability index is 1.63.
In the case of FSFKVSRWMGLAPFRSLAASSPSI [C13P], the protein stability index is 1.82.
Take FSFKVSRWMGLAVFRSLAASSPSI [C13V]: the protein stability index is 2.52.
As for FSFKVSRWMGLAIFRSLAASSPSI [C13I], the protein stability index was 2.56.
With FSFKVSRWMGLAYFRSLAASSPSI [C13Y], the protein stability index stood at 3.24.
FSFKVSRWMGLALFRSLAASSPSI [C13L]: the protein stability index stood at 3.57.
Regarding FSFKVSRWMGLADFRSLAASSPSI [C13D], the protein stability index worked out at 2.05.
Regarding FSFKVSRWMGLAWFRSLAASSPSI [C13W], the protein stability index was 2.35.
For FSFKVSRWCGLACFRSLAASSPSI [M9C], the protein stability index turned out to be 3.07.
As to FSFKVSRWFGLACFRSLAASSPSI [M9F], the protein stability index was determined as 2.95.
For the variant FSFKVSRWLGLACFRSLAASSPSI [M9L], the protein stability index was determined as 4.57.
For the variant FSFKVSRWIGLACFRSLAASSPSI [M9I], the protein stability index worked out at 4.43.
In the case of FSFKVSRWNGLACFRSLAASSPSI [M9N], the protein stability index came to 2.15.
Consider FSFKVSRWPGLACFRSLAASSPSI [M9P], for which the protein stability index came to 1.36.

(Values after the supplement of paper PMC10567573.)
